Laboratory results as given in patent US20230312753A1 (IMMUNORIZON, published 2023).

Experiments:
NKG2A-CD94-ECD-hFc [1] = target: T1, NKG2A-CD94-ECD-hFc (human, UniProt P26715 94-233; Q13241 32-179, limits assumed); assay: ELISA on coated NKG2A-CD94-ECD-hFc (FIG. 43D), reference IM-1062
T1 construct: extracellular domain; Lot 20200724002, 'provided by CP'; the two-chain layout here is only the reading of the name; also called human NKG2A (recombinant); NKG2A antigen; not shown: human Fc (hFc)
Description: (§1) Methods: ELISA binding of Tribody/ProTribody antibody constructs to antigens: Dilute target protein (hCD3epsilon-His (cat # 10977-H08S, supplier Sino Biological); h5T4-His (cat# 19845-H08H, supplier Sino Biological); NKG2A-CD94-ECD-hFc, Lot:20200724002, provided by CP; or NKG2D-ECD-hFc, Lot: 20200413002, provided by CP) into PBS with final concentration of 0.01 µg/mL for hCD3epsilon-His, 0.3 µg/mL for h5T4-His, 1 µg/mL for NKG2A-CD94-ECD-hFc and 0.7 µg/mL for hNKG2D-ECD-hFc respectively and coat 100 µL/well on ELISA plate (cat: 9018, supplier Corning) respectively. Incubate O/N, 4° C. The plates were blocked with 250 µL 1% BSA in PBST for 1 hr at 37° C.Wash 4 times with PBST. All the washes are done using Biotek (Elx 405). All the Tribody set antibodies were diluted to 400 nM and make 4-fold serially dilutions (12 points, including 0 point). Add 100 µL/well diluted antibody constructs solution to plate, incubate for 1 hr at 37° C.Wash 4 times with PBST. Add 100 µL/well anti-human kappa light chain-HRP (1:10000), incubate for 0.5 hr at 37° C. Wash 4 times with PBST. 100 µL/well of TMB substrate was added and incubated at room temperature for 5 min. 100 µL/well of 1N HCl to terminate reaction. Plates were read using ELISA plate reader at 450 nm wavelength (instrunet SpectraMax M5e). […]

[2] = target: T2, NKG2A/CD94 on CHO cells (CHOK1-NKG2A-CD94) (human, UniProt P26715 1-233; Q13241 1-179, limits assumed); assay: FACS on CHO cells over-expressing human NKG2A (FIG. 45F), reference IM-1062
T2 construct: whole, on cells; also called CHO cells over-expressing NKG2A/CD94; CHO cell line over expressing ectopic NKG2A
Description: Suspension cultured cells was harvested directly, and adherent cell were digested using TrypLE Express Enzyme (cat: 12604-013, supplier Life technologies). Centrifuge at 1000 rpm for 5 min and discard the supernatant. Cells are suspended at a concentration of 2×10⁶/mL in FACS buffer (2% FBS in PBS) and add 100 µL/well of cell suspension to the plate (cat #3799, supplier Corning). Centrifuging the plates at 2000 rpm for 5 min and discard the supernatant. Re-suspend the cells in 100 µL/well of Tribody set antibodies (400 nM start, 4-fold dilution, 8 point including 0 point) and incubate the plate for 60 min at 4° C. Centrifuge the plate at 2000 rpm, 4° C. for 5 min and discard supernatant. Then wash the cells 3 times with 170 µL FACS buffer. Re-suspend the cells at 100 µL/well with secondary antibody (goat anti-human Ig Fab-FITC, Cat # 2085-02, Southern biotech) with 1:400 dilution and incubate the plate for 30 min at 4° C. in dark. Centrifuge the plate at 2000 rpm, 4° C. for 5 min and discard supernatant. […] The fluorescence intensity of the staining was measured using flow cytometer (BD, FACSVerse). The geometric mean fluorescence intensity (GMFI; median fluorescence intensity (MFI)) of set antibodies staining was calculated (BD FACSuite software). Dose-response curves were generated and EC50s for thetrispecific variants binding were calculated using GraphPad Prism software.

[3] = target: T2, NKG2A/CD94 on CHO cells …; assay: FACS on CHO cells over-expressing human NKG2A (FIG. 45F)
Description: Then wash the cells 3 times with 170 µL FACS buffer. Re-suspend the cells at 100 µL/well with secondary antibody (goat anti-human Ig Fab-FITC, Cat # 2085-02, Southern biotech) with 1:400 dilution and incubate the plate for 30 min at 4° C. in dark. Centrifuge the plate at 2000 rpm, 4° C. for 5 min and discard supernatant. Then wash the cells 3 times with FACS buffer and analyze the sample with FACS verse. The fluorescence intensity of the staining was measured using flow cytometer (BD, FACSVerse). The geometric mean fluorescence intensity (GMFI; median fluorescence intensity (MFI)) of set antibodies staining was calculated (BD FACSuite software). Dose-response curves were generated and EC50s for thetrispecific variants binding were calculated using GraphPad Prism software.
Results: The expressed trispecific constructs were analyzed for their binding to cells expressing endogenous CD3ε, 5T4 and NKG2A/NKG2D. […] (FIG. 45F).

NKG2A-CD94-ECD-hFc [4] = target: T1, NKG2A-CD94-ECD-hFc; assay: ELISA on coated NKG2A-CD94-ECD-hFc (FIG. 43D)
Description: Methods: ELISA binding of Tribody/ProTribody antibody constructs to antigens: Dilute target protein (hCD3epsilon-His (cat # 10977-H08S, supplier Sino Biological); h5T4-His (cat# 19845-H08H, supplier Sino Biological); NKG2A-CD94-ECD-hFc, Lot:20200724002, provided by CP; or NKG2D-ECD-hFc, Lot: 20200413002, provided by CP) into PBS with final concentration of 0.01 µg/mL for hCD3epsilon-His, 0.3 µg/mL for h5T4-His, 1 µg/mL for NKG2A-CD94-ECD-hFc and 0.7 µg/mL for hNKG2D-ECD-hFc respectively and coat 100 µL/well on ELISA plate (cat: 9018, supplier Corning) respectively. Incubate O/N, 4° C. The plates were blocked with 250 µL 1% BSA in PBST for 1 hr at 37° C.Wash 4 times with PBST. All the washes are done using Biotek (Elx 405). All the Tribody set antibodies were diluted to 400 nM and make 4-fold serially dilutions (12 points, including 0 point). Add 100 µL/well diluted antibody constructs solution to plate, incubate for 1 hr at 37° C.Wash 4 times with PBST. Add 100 µL/well anti-human kappa light chain-HRP (1:10000), incubate for 0.5 hr at 37° C. Wash 4 times with PBST. 100 µL/well of TMB substrate was added and incubated at room temperature for 5 min. 100 µL/well of 1N HCl to terminate reaction. Plates were read using ELISA plate reader at 450 nm wavelength (instrunet SpectraMax M5e). Data Analysis was performed using Graphpad prism 5 software by using nonlinear regression (curve fit): log (agonist) vs. response, agonist is antibody concentration (nM) and response is OD value.

NKG2D on cells = target: T3, NKG2D on cells (UniProt P26718 1-216, limits assumed); assay: FACS, data not shown
T3 construct: whole, on cells
T3 sequence (looked up): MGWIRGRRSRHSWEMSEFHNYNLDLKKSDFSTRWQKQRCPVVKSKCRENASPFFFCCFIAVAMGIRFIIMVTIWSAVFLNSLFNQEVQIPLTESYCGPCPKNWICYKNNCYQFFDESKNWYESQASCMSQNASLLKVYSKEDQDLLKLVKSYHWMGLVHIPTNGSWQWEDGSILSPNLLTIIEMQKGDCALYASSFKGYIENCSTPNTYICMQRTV

NKG2D-ECD-hFc = target: T4, NKG2D-ECD-hFc (human, UniProt P26718 73-216); assay: ELISA, data not shown
T4 construct: extracellular domain; Lot 20200413002, 'provided by CP'; also called hNKG2D-ECD-hFc; not shown: human Fc (hFc)
T4 sequence (looked up): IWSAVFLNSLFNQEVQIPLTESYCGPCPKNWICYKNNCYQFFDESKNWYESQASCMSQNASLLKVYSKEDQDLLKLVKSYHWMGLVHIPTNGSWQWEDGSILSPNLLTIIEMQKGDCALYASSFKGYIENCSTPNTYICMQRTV
Description: as §1

T2 sequence (P26715 whole entry, chain 1 of 2): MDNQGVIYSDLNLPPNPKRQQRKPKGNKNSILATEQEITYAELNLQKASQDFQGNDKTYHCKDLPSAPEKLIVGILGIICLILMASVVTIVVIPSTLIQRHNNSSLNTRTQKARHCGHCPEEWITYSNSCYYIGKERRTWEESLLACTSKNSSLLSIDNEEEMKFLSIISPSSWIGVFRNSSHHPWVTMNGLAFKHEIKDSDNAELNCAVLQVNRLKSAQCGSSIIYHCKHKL
T2 sequence (Q13241 whole entry, chain 2 of 2): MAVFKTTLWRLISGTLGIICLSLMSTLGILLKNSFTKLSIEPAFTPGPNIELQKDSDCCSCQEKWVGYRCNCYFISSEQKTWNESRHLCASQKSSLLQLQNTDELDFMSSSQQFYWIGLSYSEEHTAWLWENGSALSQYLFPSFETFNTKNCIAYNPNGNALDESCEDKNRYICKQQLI
T1 sequence (P26715 94-233 limits assumed, chain 1 of 2): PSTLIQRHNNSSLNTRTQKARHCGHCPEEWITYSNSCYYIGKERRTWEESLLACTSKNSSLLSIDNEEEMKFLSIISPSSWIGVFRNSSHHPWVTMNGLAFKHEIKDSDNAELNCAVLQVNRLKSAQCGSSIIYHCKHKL
T1 sequence (Q13241 32-179 limits assumed, chain 2 of 2): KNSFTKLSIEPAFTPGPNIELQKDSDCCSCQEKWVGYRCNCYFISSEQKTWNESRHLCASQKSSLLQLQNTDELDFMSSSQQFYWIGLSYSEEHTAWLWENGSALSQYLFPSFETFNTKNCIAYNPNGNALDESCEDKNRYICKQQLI

B1: IM-1273 bi-NKG2A scFv Tribody, CD3 mutant variant (other)
heavy: GGSGGSEVQLVESGGGLVQPGGSLRLSCAASGFTFNTYAMNWVRQAPGKGLEWVARIGSGGNGYATYYADSVKDRFTISRDDSKNTLYLQMNSLRAEDTAVYYCVRHGNFGASARSWFAYWGQGTMVTVSSASTKGPSVFPLAPSSKSTSGGTAALGCLVKDYFPEPVTVSWNSGALTSGVHTFPAVLQSSGLYSLSSVVTVPSSSLGTQTYICNVNHKPSNTKVDKRVEPKSCPPCGGGGSDIQMTQSPSSLSASVGDRVTITCRASENIYSYLAWYQQKPGKAPKLLIYNAKTLAEGVPSRFSGSGSGTDFTLTISSLQPEDFATYYCQHHYGTPRTFGGGTKVEIKGGGGSGGGGSGGGGSQVQLVQSGAEVKKPGASVKVSCKASGYTFTSYWMNWVRQAPGQGLEWMGRIDPYDSETHYAQKLQGRVTMTTDTSTSTAYMELRSLRSDDTAVYYCARGGYDFDVGTLYWFFDVWGQGTTVTVSSGGGGSDIQMTQSPSSLSASVGDRVTITCRASENIYSYLAWYQQKPGKAPKLLIYNAKTLAEGVPSRFSGSGSGTDFTLTISSLQPEDFATYYCQHHYGTPRTFGGGTKVEIKGGGGSGGGGSGGGGSQVQLVQSGAEVKKPGASVKVSCKASGYTFTSYWMNWVRQAPGQGLEWMGRIDPYDSETHYAQKLQGRVTMTTDTSTSTAYMELRSLRSDDTAVYYCARGGYDFDVGTLYWFFDVWGQGTTVTVSS
light: GGSGGSQAVVTQEPSLTVSPGGTVTLTCRSSTGAVTRGNAANWVQQKPGQAPRGLIGGTNARAPGTPARFSGSLLGGKAALTLSGVQPEDEAEYYCALGYSGLWVFGGGTKLTVLGQPKAAPSVTLFPPSSEELQANKATLVCLISDFYPGAVTVAWKADSSPVKAGVETTTPSKQSNNKYAASSYLSLTPEQWKSHRSYSCQVTHEGSTVEKTVAPTECPPCSGGGSDIQMTQSPSSLSASVGDRVTITCRASQGISNYLAWFQQKPGKAPKSLIYRANRLQSGVPSRFSGSGSGTDFTLTISSLQPEDVATYYCLQYDDFPWTFGQGTKLEIKGGGGSGGGGSGGGGSGGGGSQVQLVQSGAEVKKPGASVKVSCKASGYTFTSFWMHWVRQAPGQGLEWMGRIDPNRGGTEYNEKAKSRVTMTADKSTSTAYMELSSLRSEDTAVYYCAGGNPYYPMDYWGQGTTVTVSS
notes: Two anti-NKG2A scFv in tandem, CD3 arm mutated; also called IM-1273 CD3 mutant variant
fold improved binding affinity against IM-1062 (NKG2A-CD94-ECD-hFc [1]): ~60 fold
fold improved binding affinity against IM-1062 [2]: ~80 fold
EC50 [3]: 200 pM
EC50 (NKG2A-CD94-ECD-hFc [4]): 100 pM

B2: IM-1091 Tribody, NKG2D mutant variant (other)
heavy: GGSGGSEVQLVESGGGLVQPGGSLRLSCAASGFTFNTYAMNWVRQAPGKGLEWVARIRSKYNNYATYYADSVKDRFTISRDDSKNTLYLQMNSLRAEDTAVYYCVRHGNFGNSYVSWFAYWGQGTMVTVSSASTKGPSVFPLAPSSKSTSGGTAALGCLVKDYFPEPVTVSWNSGALTSGVHTFPAVLQSSGLYSLSSVVTVPSSSLGTQTYICNVNHKPSNTKVDKRVEPKSCPPCGGGGSQSALTQPASVSGSPGQSITISCSGSSSNIGNNAVNWYQQLPGKAPKLLIYADDLLPSGVSDRFSGSKSGTSAFLAISGLQSEDEADYYCAAWDDSLNGPVFGGGTKLTVLGGGGSGGGGSGGGGSGGGGSQVQLVESGGGLVKPGGSLRLSCAASGFTFSSYGMHWVRQAPGKGLEWVAFIRYDGSNKYYADSVKGRFTISRDNSKNTLYLQMNSLRAEDTAVYYCAKDAGEGDGTYFDYWGQGTTVTVSS
light: GGSGGSQAVVTQEPSLTVSPGGTVTLTCRSSTGAVTTSNYANWVQQKPGQAPRGLIGGTNKRAPGTPARFSGSLLGGKAALTLSGVQPEDEAEYYCALWYSNLWVFGGGTKLTVLGQPKAAPSVTLFPPSSEELQANKATLVCLISDFYPGAVTVAWKADSSPVKAGVETTTPSKQSNNKYAASSYLSLTPEQWKSHRSYSCQVTHEGSTVEKTVAPTECPPCSGGGSDIQMTQSPSSLSASVGDRVTITCRASQGISNYLAWFQQKPGKAPKSLIYRANRLQSGVPSRFSGSGSGTDFTLTISSLQPEDVATYYCLQYDDFPWTFGQGTKLEIKGGGGSGGGGSGGGGSGGGGSQVQLVQSGAEVKKPGASVKVSCKASGYTFTSFWMHWVRQAPGQGLEWMGRIDPNRGGTEYNEKAKSRVTMTADKSTSTAYMELSSLRSEDTAVYYCAGGNPYYPMDYWGQGTTVTVSS
notes: CD3/5T4/NKG2D Tribody with mutated anti-NKG2D arm
binding result (NKG2D on cells): no binding
binding result (NKG2D-ECD-hFc): no binding
